Experiments:
Assay in all cases: ELISA; antibody coated, FLAG-tagged RBD mutant, anti-FLAG-HRP detection
[1] = molecular target: Ang2 RBD mutant A449 (human) (UniProt O15123)
Ang2 RBD mutant S417 = molecular target: T1, Ang2 RBD mutant S417 (human, UniProt O15123 276-496)
T1 chain: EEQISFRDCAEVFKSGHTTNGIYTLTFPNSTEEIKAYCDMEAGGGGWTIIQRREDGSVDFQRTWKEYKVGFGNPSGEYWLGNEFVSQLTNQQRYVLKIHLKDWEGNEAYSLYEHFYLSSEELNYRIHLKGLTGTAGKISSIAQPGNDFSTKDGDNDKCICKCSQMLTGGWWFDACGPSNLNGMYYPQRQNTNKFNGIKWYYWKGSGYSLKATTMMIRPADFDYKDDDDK

Ang2 RBD mutant K468 = molecular target: T2, Ang2 RBD mutant K468 (human, UniProt O15123 276-496)
T2 chain: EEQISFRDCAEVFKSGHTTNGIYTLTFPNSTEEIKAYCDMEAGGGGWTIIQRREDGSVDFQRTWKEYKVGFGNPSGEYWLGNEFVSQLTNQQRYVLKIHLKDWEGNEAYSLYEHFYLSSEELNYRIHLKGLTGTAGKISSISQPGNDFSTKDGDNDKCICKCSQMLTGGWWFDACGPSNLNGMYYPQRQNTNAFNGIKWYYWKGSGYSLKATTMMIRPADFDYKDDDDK

Ang2 RBD mutant I434 = molecular target: T3, Ang2 RBD mutant I434 (human, UniProt O15123 276-496)
T3 chain: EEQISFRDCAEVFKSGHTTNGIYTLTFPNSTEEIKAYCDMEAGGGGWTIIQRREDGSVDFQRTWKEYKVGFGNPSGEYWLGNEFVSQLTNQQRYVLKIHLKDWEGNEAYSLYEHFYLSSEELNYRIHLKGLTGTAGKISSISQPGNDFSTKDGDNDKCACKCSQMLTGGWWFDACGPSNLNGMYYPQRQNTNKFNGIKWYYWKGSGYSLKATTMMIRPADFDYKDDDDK

Ang2 RBD mutant N421 = molecular target: T4, Ang2 RBD mutant N421 (human, UniProt O15123 276-496)
T4 chain: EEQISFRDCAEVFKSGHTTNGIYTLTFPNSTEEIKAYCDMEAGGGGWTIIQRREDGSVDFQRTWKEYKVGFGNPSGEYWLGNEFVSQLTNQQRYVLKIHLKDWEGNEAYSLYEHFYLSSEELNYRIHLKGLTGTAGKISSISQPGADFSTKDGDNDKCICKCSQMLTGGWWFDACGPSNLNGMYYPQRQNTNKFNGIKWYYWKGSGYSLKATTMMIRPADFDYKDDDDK

Ang2 RBD mutant Q418 = molecular target: T5, Ang2 RBD mutant Q418 (human, UniProt O15123 276-496)
T5 chain: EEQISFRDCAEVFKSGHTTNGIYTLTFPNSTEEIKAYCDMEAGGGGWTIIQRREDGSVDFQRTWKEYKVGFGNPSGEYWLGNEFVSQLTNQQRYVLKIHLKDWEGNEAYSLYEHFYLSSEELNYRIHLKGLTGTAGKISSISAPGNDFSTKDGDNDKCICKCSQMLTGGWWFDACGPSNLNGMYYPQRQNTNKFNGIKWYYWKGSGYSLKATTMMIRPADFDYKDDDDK

Ang2 RBD mutant Y460 = molecular target: T6, Ang2 RBD mutant Y460 (human, UniProt O15123 276-496)
T6 chain: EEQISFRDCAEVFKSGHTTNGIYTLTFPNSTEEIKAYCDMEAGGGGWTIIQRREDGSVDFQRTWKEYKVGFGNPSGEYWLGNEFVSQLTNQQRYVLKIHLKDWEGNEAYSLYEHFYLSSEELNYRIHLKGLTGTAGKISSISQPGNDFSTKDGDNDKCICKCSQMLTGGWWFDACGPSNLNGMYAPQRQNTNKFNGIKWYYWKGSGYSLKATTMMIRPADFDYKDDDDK

Binding (%) (mutant Ang2 / native Ang2) [1]: 95.6%
Binding (%) (mutant Ang2 / native Ang2) (Ang2 RBD mutant S417): 100%
Binding (%) (mutant Ang2 / native Ang2) (Ang2 RBD mutant K468): 27.3%
Binding (%) (mutant Ang2 / native Ang2) (Ang2 RBD mutant I434): 93.2%
Binding (%) (mutant Ang2 / native Ang2) (Ang2 RBD mutant N421): 89.3%
Binding (%) (mutant Ang2 / native Ang2) (Ang2 RBD mutant Q418): 97.2%
Binding (%) (mutant Ang2 / native Ang2) (Ang2 RBD mutant Y460): 8.3%
B1: SAIT-ANG2-AB-m1A10 (antibody, V domains shown)
VH: QVQLQQSGAELMKPGASVKISCKATDYTFSSYWLEWLIQRPGHGLEWIGEILPGSGSTNYNEKFRGKATFTEDTSSNTAYMQLSSLTSEDSAVYYCARGNHNSYYYAMDYWGQGTSVTVSS
VL: DIVLTQSPASLAVSLGQRATISCRASESVDSYGNSFMHWYQQKPGQPPKLLIYRASNLDSGIPARFSGSGSRTDFTLTINPVEADDVATYYCQQSNEDPLTFGAGTKLELK
notes: also called hybridoma KCLRF-BP-00306

Reference: US20150210761A1 (SAMSUNG ELECTRONICS, published 2015)
